Measured values: the DeepSol protein solubility set

Assay: soluble on expression in E. coli; label from the status in PepcDB or PDB records

Row | Sequence | soluble on expression in E. coli
1 | MGHHKAMPYADVAAFIIELRKREAVAATALEFTILTAARSGETLGAKWHEIDWKDKIWTVPAERMKAAREHRVPLSSRTITILKKLAEFGSDENSFVFPGQKPGKPLSVMAMDMVLRRMEVDVTVHGFRSSFRDWCGEVSNFPRDVAEAALAHVVGDKTERAYRRGDALEKRRKLMAAWEKFCIAEIKKNPLEHHHHHH | not soluble
2 | MAHHHHHHMSVRERAVVLVDGPAVVHRWYHRWSYTSKHTPVDVKRFTITNARHIIATAHSFDPSHLAQHLLSPQVEYAHTPKHNKIIVCFDQGDGGRRELYPAYKENRAEREHAAELSVIKKVAIKVFTGEPKNTLIVLPDLDAKLKDVDAEADDIIATLALHNQQLKIPTVVMSHDYDLYQLIDEANKCYHYDIRTKHLVSEKGVIERVGVHPKLVRDYKSLAGDSSDNIPGVKGIGKTRALQLLKKYGDLEGVLTKGKKKQGGHLGDLLRAGAADAELSRKLVELRSCPKVLKACEAFMKL | soluble
3 | MVEERIINLSHEIKNFVYPNDPEFIVKTKKNGKYSVSELNMGVHTGTHIDYPMHVGLTNEKFENVFGKGYCVSLENMNDFFKNAPKNLEILLIKTDFSKYWEDPEYFEKECDIENHVEKLISMNLKAVGIDCCSIGNFSVHEKLLSSKIKIIENMKNLEILENKTFKFFGFPLNIEKIDGSPINAVAFLLEHHHHHH | not soluble
4 | MKNIGVNINSCKDPDGTIRKYVEKVIKEEKKDVQVKFYDELNYFDEVCKTKPDFFIAFGGDGTILNAARNLVSCGIPIFSVNIGHLGFLSSIEFKDFKDAIHKIFKGEYFFQERTMLKCSFIKGNSKKVFYSLNEVVLYKGNMAKILKYNIDVDDKFYMGFKSDGIIISTPTGSTAYNLSAGGPIIYPNLDLISLTPICPQGPYAGTIVLDGKSNITISGIDANENVFITVDGRQPVDVKGVSFIEISKLNYKCKLLKLKDYNYFEVLRKKIILRTEECEGDKYMAGDPLEHHHHHH | soluble
5 | MGSDKIHHHHHHMKNRIEDRRIKYTKMVIKQSLITLLKNKPINKVTVTEICNLADINRSTFYTHYSNPYDLLDSIEEELFEEVKSSLRDSEGETKIENTVNEIFKAIAKNKELFKIFFSSHRDYGFLIKFFGAVYNNSIDNFKSAFKSNNDAQLEYLYNYILTGNASISYKWIKNGLKESPEEMASLVNRLIVHTMSFIK | not soluble
6 | MRKLFIALTFLLVPACLSAQLGGKIYLQRADSLLQRVLSLYEVKKYGLLMETYPRNPKQQITYTANTGSEVTQQEVSFLWPYSAMVSGCVSLYKTSGNKKYKKLMDKQIKPGLDLYWDTTRQPECYQSYPAFAGQNDRYYDDNDWVAIDFCDYYAVTKNKEYLKKAIALHDYIYSGWSDELGGGIYWCEQKKESKNTCSNAPATVLCMKLYKLTKDKKYLDQAMATYQWTRDNLRDPSDFVYWDNKNLQGKIGYAKYTYNSGQMIQAGVLLYQATGDEQYLKDAQQTAKGSYEHFLKPQPTVKGEMKFFPSSPWFNVILFRGLKALYEVDKNDTYVKAMIDNADYAWQYTRDENGLLNNDWSGNRKDKFKSLLENSCMIELYSEISELLEHHHHHH | not soluble
7 | MAHHHHHHMTQSTIPLQSNIKISDRLEENSIDFCRFVGPFNRADEYAFTAPPWCQREGSENVPGSSLSTSVSAVFVLVSSPPNCGLVARFFCTKLLHYLLWCYKDAAFFLAGPSPRDFNVYRHEDDAAAWRKCMETCLAKSLEHVESARKRGTLTEPVVIVLADCESQAAYDTVHKMLGSMENLFVRHIWFGDSWRESNPVDCSYINVCLRQPAYRLTKCRGSSTCAKITSYLNSCLPTLHHIHLHEPLSGSPEETLRSGCPLFFTRHGQSEYNLEDRLGGDPDITPLGVDDALTLAEFFRDQVVRNPRLFATRDSIWDETEGFEVWCSQLKRTRHTAQPSADVLTNGNLKAFKMLNEIHAGVCEDMTANEVKEQYPSIQFFRHTDKAGFRYPNGESYHDLKRRLVPILYDLNATRKGILVVAHQAVLRAILSFFGGPPVEEAVHKPCAHRAVWCCTYNRLGEPRLSTITLRPRLQSSTEASTSVG | not soluble
8 | PDVSALDEVVVEAYGSKTRKITTTGAVTSVDVATLQTPATSLANMLGGRVAGIISTQGSGEPGKNISDFWIRGIGTFGANASALVLIDGLEGSLNDVDPADIESFSVLKDASATAMYGVRGANGVVLVTTKRGKQEK | not soluble
9 | MKQKIVLATGNKGKVKEMADVLSDFGFEVIAQTDLGIESPEETGLTFVENALLKARYASEKSGLPAIADDSGLVVSALNGAPGLYSARYAGEEGNDAKNREKLLAELAHIAQEQRQAKFVSCIVFLQHPTDPSPIIAEGECCGVIGFEEKGENGFGYDSLFFSPEQGCTFAELETAEKKKISHRAKALSVLKSKL | not soluble
10 | MQAEILLTLKLQQKLFADPRRISLLKHIALSGSISQGAKDAGISYKSAWDAINDMNQLSEHMLVERATGGKGGGGAVLTRYGQRLIQLYDLLGQIQQKAFDVLSDDDALPLDSLLAAISRFSLQTSARNQWFGTITARDRDLVQQHVDVLLADGKTRLKVALTAQSGERLGLEEGKEVLILLKAPWVGITRDAAVARAADNQLSGTISHIERGAEQCEVLMALPDGQTLCATIPTSDAATLKEGDDVIAWFNADRVIIATLC | not soluble
11 | MSLSSASSKRSVMTLFSNKDDIYCHQVKIVLAEKGVLYENAEVDLQALPEDLMELNPYGTVPTLVDRDLVLFNSRIIMEYLDERFPHPPLMQVYPVSRAKDRLLMLRIEQDWYPTLAKAENGTEKEKTSALKQLKEELLGIAPIFQQMPYFMNEEFGLVDCYVAPLLWKLKHLGVEFTGTGSKAIKAYMERVFTRDSFLQSVGEAAPKNLMDDKEGHHHHHH | soluble
12 | MEYFNAGGGGSTGNGSTDPYAVIPQQFGNGGQQPQQQVFTDYQQDGSATDYETYQQQQQQYRAAQASQQSSSMYYQNQMTAAQANYFPIHSASEHDFLGPQQPPSATTSVSGAAGAPYQSASGGNKEFMMQHQQRRGNQSGQQQQNQPSQQNNQQQQNQGARQQHPQQMQQQQQSNQSAHFMHQQLQAVQQQQAQQMHHRLQGAPINPQQFMVPPPTMMQPQQMQQAQQQQAQQMHQMQIHHQQHPQMMQQHAQQGYHPHQQNQQHQAGQHQQSHHQSQNHNQHRNHNQSHSGPHHIPQNLMMPRCMLKDWPIRCVVEGKYHAVIIGPNGSTIKDIASSTRCRVDFVNLSKKERTVLGNNDRILTVHGVAEQATKAVARILDVIQSEAVKDDVNVGADTVLRMRAHNQLCGRLIGKAGSSIKEIMQKTGTNITVTKYIEPPGGISGLTANELLGLMERTIMVRGPSIEAVVQAEALISAKLKKCYESDSQLRAQSMQCPMPPMMMPPILPPGASSSAVSAPHFIPTPPGVLQIQPGTTNLRQVRMWVPDSMIGALIGAKGKNIKMIIRDTGASVKIEAPEEKTQREAEEAEKKRKLDETDSGCEGVASGDHPQEFLEDNATINSSDAIEEKPKPVSERMVTINGDDLQLLKAQSYVFSKIAETSSSLPSSGMDGDRSHMLRIRTEVSVPTRIIGRIIGKGGQNVRELQRITGAVVKIPEEERNGGEVYRHDDGLEEDMTMIRTIGNMYSTHNVQFRLAHLVNEYYRSGDHRNKSSDYKGGRPHSAPSSGQEKDGSALEKMDQLGTIAPISNSNRASPKSVSPPKSKSP | not soluble
13 | MKIALMMENSQAAKNAMVAGELNSVAGGLGHDVFNVGMTDENDHHLTYIHLGIMASILLNSKAVDFVVTGCGTGQGALMSCNLHPGVVCGYCLEPSDAFLFNQINNGNAISLAFAKGFGWAGELNVRYIFEKAFTGKRGEGYPIERAAPQQANAAILNNVKAAVAKDVVEGLRAIDQELVKTAVGSTQFQECFFAHCQVPEIAEYVKSLLD | soluble
14 | MHHHHHHSSGRENLYFQGQKDGIFKVMLVGESGVGKSTLAGTFGGLQGDSAHEPENPEDTYERRIMVDKEEVTLVVYDIWEQGDAGGWLRDHCLQTGDAFLIVFSVTDRRSFSKVPETLLRLRAGRPHHDLPVILVGNKSDLARSREVSLEEGRHLAGTLSCKHIETSAALHHNTRELFEGAVRQIRLRRGRNHA | soluble
15 | MAKKVKVITDPEVIKVMLEDTRRKILKLLRNKEMTISQLSEILGKTPQTIYHHIEKLKEAGLVEVKRTEMKGNLVEKYYGRTADVFYINLYLGDEELRYIARSRLKTKIDIFKRLGYQFEENELLNIMDRMSQKEFDATVRISKYIEEKEDALKDFSNEDIIHAIEWLSTAELARDEEYLELLKRLGSILKR | soluble
16 | MISLIAALAVDRVIGMENAMPWNLPADLAWFKRNTLDKPVIMGRHTWESIGRPLPGRKNIILSSQPGTDDRVTWVKSVDEAIAACGDVPEIMVIGGGRVYEQFLPKAQKLYLTHIDAEVEGDTHFPDYEPDDWESVFSEFHDADAQNSHSYCFEILERR | soluble
17 | MAHHHHHHMGAPLREDPYNIKTPISDGTTIIGIIYEHGVMLACDTRTSSGTLVSNKCSRKINRINENIYACRSGASAHSQKVIELIKHFCLSMKCENRKKGRFHEDEVITDDLANEEDIDLSAINNPFGLAQNMDPNYVTKHKYFYEDKFMDFNPLVENVAHMTKKLLYANNHFLSCGLILGGYDKEKKQQLYSVNLNGSIVQRFDYAVSGSGSVYIQSYLQDKYKKNMSKKECFELILGCVKYAMYNDNSSGGIVRIVNMTKLFVEEFTVTNTQLHFDY | soluble
18 | MGSDKIHHHHHHMKILPVISTKGGEGKSTQAANLAGFFADAGLKTLLIDGDYSQPTASSIYALEHEAPFGLFELLMQTTDLNQPESIISRTAIPNLDLIISNDPDDRLPTAMLHAPDGRMRLKNILQHQSFQSYDVIMIDSKGAAGVMVELVVLAATENVVGVIKPILPDVREFMRGTVRLMSRLLALQAYGIQIPDIKILANCVENTSLDRKTLEELGNIVSEKKYLQSESINISILETKIDQLEVYKRGHAFGQPVHRLEYVTDRKSAAAAVTMHSLACELFPHWKDKFDSVLRNQTGAGEVASV | not soluble
19 | MGKKAHGGKMKPEIDENGTLLVPPPRTIANQDHFHRLNYLYQISAYQTRARQKARTDAHTPLARNYIKSMDLISKKTKTSLLPTIKRTICKKCHRLLWTPKKLEITSDGALSVMCGCGTVKRFNIGADPNYRTYSEREGNLLNS | soluble
20 | MSLQNRIMITGAGSGLGREMALRWAREGWRLALSDINDAGLQETLALVREAGGDGFVQRCDVRDYSQLTAFAQTCEERFGGMDIIVNNAGVASGGFFNELSLEDWDWQIAINLMGVVKGCKAFLPMLQASKGKIINIASMAALMQAPAMSNYNVAKAGVVALSESLLVELRDQDVGVHVVCPSFFQTNLLDSFRGPTPAMKAQIGRLLEKSPITATDIADYIFTQVAEGEFMILPHEEGRLAWDMKRQQPQAMYDEMTVMCAKMRAKAQKGEGHHHHHH | soluble
21 | MAHHHHHHMNNTNIVTFSPKLKYSINDVVHRDREVKEYHLQIDREASDILFFCTIKPKQVSELLEGEVKINLKREVGEQYSVASEDGTHVCDFSKGNLNISPSAGFNYKHDRSVSCIYLVIPNKLFLIKLPKLNIVTEQFLPNLVSCLSEYSFINFNLKHVEESDDSISLHLSFGDFKKNFNVSCAFDLSEYAVEPCSLGKKGIVTFYFNA | not soluble
22 | MYQVIRMYGAMEPWWFLDDWKEDITKVLEFDNYHEALQCYQKEWAKLRRRYSDFNSHGDIMTAFWNKQDQHWCEECGDYVQRYHSLALLTDWQETPSSWFRPTFTKQNDTPFRSKCFIKQKNEQGQNLEHHHHHH | not soluble
23 | MGSDKIHHHHHHMQALERDYGHGDEVASHCHAEDQLIYAASGVMRVSSEGGSWVIPGGHALWMPAGVSHAIRMKGVVCMRTLLLDAHIERCQVIVVSGLLRELILAASRVLNLRDGAHARALILYELAAARRIDAFVPTPQHARLRAWCERFLQDPAQDLTLEQCGAQLNMSARSVARLFQREVGMSYGQWRARARVMLSQQCLADGKPILNVALEHGYQSASAFTAMFKRILGHAPSDWQNGTAREY | not soluble
